In article PMC8924070 (Frontiers in Immunology, 2022):

Columns and labels:
Settings in all cases: both partners purified
[1] = target: T1, PD-1-ECD (PD-1-E. coli), extracellular domain of programmed cell death protein 1 expressed in E. coli (Homo sapiens, UniProt Q15116); experiment: SPR; BIAcore8000, CM5 chip, room temperature; cemiplimab-scFv (695 RU) or camrelizumab-scFv (569 RU) immobilised; PD-1 forms flowed over (PD-1-WT 0-100 nM, PD-1-N58A 50-800 nM, PD-1-E. coli 0-8 μM); 1:1 Langmuir model
T1 construct: PD-1 (programmed cell death protein 1), extracellular domain, UniProt Q15116, residues L25-R147; no glycan, no post-translational modification; Cloned into pET-21a(+); also called non-glycosylated PD-1

[2] = target: T2, PD-1-E. coli, extracellular domain of PD-1 (residues L25-R147) expressed in E. coli (Homo sapiens, UniProt Q15116); experiment: SPR; cemiplimab-scFv (695 RU) or camrelizumab-scFv (569 RU) immobilised on a CM5 chip, PD-1 forms flowed over (PD-1-WT 0-100 nM, PD-1-N58A 50-800 nM, PD-1-E. coli 0-8 uM); BIAcore 8000, room temperature; 1:1 Langmuir binding model; mean of three repeats
T2 construct: programmed cell death protein 1 (PD-1), extracellular domain, residues L25-R147 of UniProt Q15116; no glycans (E. coli); Cloned into pET-21a(+); also called PD-1-ECD; non-glycosylated PD-1

[3] = target: T3, PD-1-N58A, extracellular domain of PD-1 (residues L25-R147) with N58A, expressed in 293F cells (Homo sapiens, UniProt Q15116, N58A, glycosylated in 293F cells, specifically deficient in N58 glycosylation); experiment: as above
T3 construct: programmed cell death protein 1 (PD-1), extracellular domain, residues L25-R147 of UniProt Q15116, N58A; also called N58A-mutated PD-1; N58 glycosylation-deficient PD-1; not shown: His6, C-terminal, kept
T3 sequence (Q15116 25-147 N58A): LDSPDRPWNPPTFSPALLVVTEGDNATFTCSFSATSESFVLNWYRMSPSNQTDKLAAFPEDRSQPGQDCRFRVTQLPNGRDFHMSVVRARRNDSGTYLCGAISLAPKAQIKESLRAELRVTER

T1 sequence (Q15116 25-147): as the sequence (Q15116 25-147 N58A) above, with A34N counted along it
T2 sequence (Q15116 25-147): as the sequence (Q15116 25-147 N58A) above, with A34N counted along it

B1: cemiplimab-scFv (single-chain variable fragment of cemiplimab, VL-(GGGGS)4-VH) (scFv, V domains shown)
VH: EVQLLESGGVLVQPGGSLRLSCAASGFTFSNFGMTWVRQAPGKGLEWVSGISGGGRDTYFADSVKGRFTISRDNSKNTLYLQMNSLKGEDTAVYYCVKWGNIYFDYWGQGTLVTVSS
VL: DIQMTQSPSSLSASVGDSITITCRASLSINTFLNWYQQKPGKAPNLLIYAASSLHGGVPSRFSGSGSGTDFTLTIRTLQPEDFATYYCQQSSNTPFTFGPGTVVDFR
notes: VL of cemiplimab; linker, printed as GGGGS (4); VH of cemiplimab; Cloned into pET-21a(+); Used in the crystal and, by the SPR methods, immobilised on the CM5 chip; also called REGN2810; Libtayo
Kd [1]: 0.691 µM

B2: cemiplimab-scFv, single-chain variable fragment of cemiplimab (VL-(GGGGS)4-VH) (scFv, V domains shown)
VH: B1 VH
VL: B1 VL
notes: VL of cemiplimab; structure of the cemiplimab-scFv/PD-1 complex deposited as PDB 7WVM; linker, printed as GGGGS (4); VH of cemiplimab; Cloned into pET-21a(+); also called REGN2810; Libtayo
koff [2]: 0.047 s⁻¹ | koff [3]: 0.0274 s⁻¹

B3: camrelizumab-scFv (scFv, V domains shown)
VH: EVQLVESGGGLVQPGGSLRLSCAASGFTFSSYMMSWVRQAPGKGLEWVATISGGGANTYYPDSVKGRFTISRDNAKNSLYLQMNSLRAEDTAVYYCARQLYYFDYWGQGTTVTVSS
VL: DIQMTQSPSSLSASVGDRVTITCLASQTIGTWLTWYQQKPGKAPKLLIYTATSLADGVPSRFSGSGSGTDFTLTISSLQPEDFATYYCQQVYSIPWTFGGGTKVEIK
notes: scFv of camrelizumab; Named only in the SPR methods
Kd [1]: 2.63 µM

B4: camrelizumab-scFv (scFv, V domains shown)
VH: B3 VH
VL: B3 VL
notes: scFv of camrelizumab
koff [2]: 0.308 s⁻¹ | koff [3]: 0.171 s⁻¹
